From the NTF2 design screens of Basanta et al. (2020)

Test: protease stability score; higher = more stable; yeast display proteolysis, trypsin and chymotrypsin;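 note: relative to predicted unfolded state with 0 unfolded-like and 1 meaning tenfold more protease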

Point of comparison: “SKEDRDAKWAFEHLMHLLHTGDEEKINENLDPNARNEFDGRELHGREIITEILRNLGIKHLHIHSVEFISQGDKLFSNVDGNNIFDGREVHTHLHFIIEKFNGKWNIKSIHIKIT”, protease stability score 1.19. Against it:
- DEEHQHSLARTLATALRTGDPEKMKDLADKDVKVVVGDKHIKGRKDAKKWAKDWRDRYDHAQVDDVNVQGENVRIVMNVEVDGHNVVVVMTAIIDGDQVKNVKVTARNEEQEKKMKK — lower, 0.252
- DEEEEYLHKRAREFFRSFLTGDWHFLMHLLDPNVRWEVIIGNKRIERHGREELFKDLLRWLEEIRIKRMHVEEIHVFDGQLFMRVSAHGEFNGKERDTHEELVVVVVNGRFKSARIHVH — higher, 1.65
- DDIEKLMLWALHLFSHALSTGNEELVIRLADPHYRLHIGDWESHGRENFRQFIHEIRMHMKRVDDRDIRVQGEFVRIEGELDGVIFIDGRTFRTRLDTRIILNKVDGRWFIHSNHVH — higher, 1.27
- DHQERHLREFAHEVEEAWHTGDWKDMFRLFDPNTRVDFHFENHDLHLHGRESMVRFIRDFLDKFKNIRLQLTSRDRQGDKVHLTEEFHINGRIMVIHVNFDIVNGKWKRLELDFIDT — higher, 1.25
- SEEEEESKIISKLAIEETKTGDFESIRRNADPRARSDVDGQEMHGRELLEHIFRWIIEKAGVDKVETDLHELRIVGDKVHVRTKLHIGDWRIEVEIIVRKINGRWHLHSMRFSLR — lower, 0.646
- DEEEEIAHEMVRELVKVLETGDEEIWERLMDPNDRIHIGDKNLVGMDETRKWINEFMERIDHIRVRVRSIHPVDGRANLDTEITTHYNGRTTTYKVLLIVVKVNGRWVLESMHIK — higher, 1.93
- SEEEEEMERILKYIFRLLTTGNWKELTDNLDPDVRIIIGDKTLIGREEFQRKFKDDHDKFKNMRLEIKDSHMQGDKIIIHLQVDIGDKHFEVIIYVVKINGRWHLKTLEIR — higher, 2.09
- DHDEKWAREVIRLLIEDIVTGDEESLSKLFDPHVRIEIGDKEHIGMEIALKLMIELWERLGVKHIHFHMSDIRVYDGRLDVDSRLHHVVNGRKHETKVRIFIRKINGRWVIESLVIH — higher, 2.25
- HELLEIIHRVAQMIYENLLTGNEDLFEHLADPNRRLLVNGVDLVGWERVVKWEKEMRIHDHRLRDESMTRQGDKAFVHHRTELRGDINGREIHTETKLNIVIRKIDGKWIVERIEVRID — lower, 0.81
- SEEDEELREMARLIILLEWTGDEETFEHLADPHVRSHINGVHLHGRETVSKWLMHVREHLRFNDIRIRDLWVFNGKVKINGEYDGHVNGRRIRYTVHLYFVIIDGRIREISREHR — lower, 0.301
- SEEEKIMEELLRRIVNALQTGDEDFWSHLADPDTRFVLIQGEWSDEVHGRENALKFMEELKKRVPGMRIRVKDSRVQGEKLHVDGEIIYNGRSFDVEIRLRVVDGRIHEFQIIIR — higher, 2.06
- SEEEEEMEKVAKRWFWAVLTGNEDELHELLDPEAKSDVNGRDTHGREEVVRLMTEHVEKLGVDHVKVHDVKIQGNKFHFDGILIFNGVTVHSRVELDLINGKVHYMSIKLQ — lower, 1.1
- SEEEEWMEEFRERWERNFMTGDEDAMRELADPNVRIDIGEWDVHGREHLAELLKRHLDTLGINHVEFDHSTVIDGVIHIHMTINVNGKRIYSEVRLLVVNGKLKHSHYDIK — lower, 1.01
- SEDEEHLKELSEMLIKNWLTGDEKKWDRLADPHAKLRINVNGRDRRRVGMENVHRALHHLFHELRIKHLRDKDSNLINGVSHIEGESTILVGDKEIDTRIVIHLLIIDGRLEEERIVIE — lower, 0.178
- GEEDEEFSKLMDETVKSLQTGDETHLKKLLDPNVILHVGDKEFHGRERAIDWYRHLRIHDMTIHHWEIQGDKAHVDGKLHVEVDGQHYDAKLHIVLEKINGQWYITSIHYK — higher, 2.06
- SEEEEHVWEWAKLVIDLWQTGNEEIFKELVDPNARSEFDGVTIHGMHNDLKRIIEELREIRVRIEIHSVRVIDGVLDVDVKLRLHIGDKQREIKIRLHIVVIDGKLKSVHIDKH — higher, 1.9
- SEEEHDWRRALKIFLESLTTGDPKSITELVDPNARSDINGVDLHGREEWSKEMNRIKNLTIHDFEIEHISIYDGKAEINGHLDFEFDGVRTKIEVHLIFEKVDGKWVIQSRIVK — lower, 0.895
- SEDEKEAKETQSIYSHAVQTGDEHHLKELADPNVRIEINGVEYVGWEQLKDMLERFKNVRIKVSVRRVHQIGDKIHLNTELEEDVDGVRRVIDVRVIIWKINGRWRFKTFESQ — higher, 1.41
- HEDEELSRKAVELMLELIMTGDEDTIRSLADPDTRIEINGRHHHGRHLMVEFMREWFRRYPNVQLDVHSLDIDLFNGRVLIQINLEIRIGDKHHRVRINIHADKVDGRWRLKEVRIEIK — higher, 1.5
- DEDEEELEKMLHKMLESLRTGDWKDITENLDPHTRFNINGVDFHGRELAHEVLHEWFERYKNIRIFLNTSRTINGRVELILRIEIGDKEEEMRILVIKVDGRWFMDTVDVRTR — higher, 2.13
- SEIDRLSEELARLFLELVITGDFKTLSHLADPTVKSDINGVDLHGREELYRWVEEFYNELRVSWVLDSIEVQGEKAYVKGKLESRVDGQRHTDQYEIILIIVNGRFKEIIVKRR — higher, 1.5
- SEEEHWVELLIELLERTQKTGDEHSFERLMDPNVRIIIGDKVMHGREEASRWMHEARVHETRIEHIRIINGRAHIDSRERGEINGREINLRVEIISSKVDGRWVITEVRVE — lower, 0.943
- HEMEEMEELAFRLIEESIRTGDFTTLEDLFDPDTRIIIGDKDLHGREALRHLRERIDHLKELRVHRRTFIGDWLDMNLHMTGNVNGVEHRRDVRFIIWKINGQWRIHSVYEV — higher, 1.38
- SEEEKKSKDALRFLEEVWKTGDWDDFRKMIDPHVRIEVNGRTYHGMEDAEKFARDLLKRVKNMKVSIRHIETQGDKMIVHGELNIDGVHSEIQIFTDKIDGRWLLKEVNFI — lower, 0.498
- DESHESLHKMLKVRYEALHTGDESMLNELLDPDARFNVDGRIHHGRERAVRYNERIPNLTTRDLKVHDWKVIGDKIHIDGRLEGHWNGKHHIINEEIIVQKINGKWLIEEVIVR — lower, 0.109
- SELHEEAEELTEKIIRILLTGNEHFFSELVDPDVRTNVDGKELHGREEALRKFEEMRRKLGYDRVRVELRKYTVFDGRVEVVTELNVNGRRLEYIWRMHKVDGRWSLHIWEIR — higher, 2.65
- REEEEEAKRFLDIITRSILTGDEDSLSELFDPNTQLHYGDKRFVGRERINEVVKQWRIEDVNLHDVEVQGEWAILDTRVDGNFNGKKRNLETRIITEKVNGRWILKRVEIE — higher, 1.35
- SEEEEEIKTWTDLFINLWMTGDFHTLVHLLDPNVKAEIDGVDVHGRESVEKMLRIFIKRLGADHSDVRDSSIVNGRLDIELESDVNGRIRTIDIHVLIINGRVKSLKVDIR — higher, 2.46
- TEEHHFAERVVREWLKLYYTGDEERNETLADPNVKLDVNGRHYHGRESVSEFLREVYEHWRIREFHIHEFDVFNGVSHVDGELILEINGQKHRYRVRIIIVVINGRLKHIELNQV — higher, 1.56
- NEHEEYARRQLELWLHATRTGDEETVRRLADPDVRVIVDGREHHGMEQLLRWMIELRITDFKEDTYEIQGNKIKIRGILYIEIGDKHETRFTTIELNWFNGVLKHIKVEVR — higher, 1.28
- DEDHKHWKKLTEILFHVFRTGDWHLLEKLADPNVRTVVNGVEIHGREHLADIMWLHKETLGIDHMELRSIEYQGEKFIIHAEIDVNGRKVDVHIRSVIIDGRMHSISIEVHHH — higher, 1.99
- TDDEREAVRFSEEVMHSFITGDEEHLDRLMDPNTKLTVNGKEIHGRQDVLEFIKRYRRELGVKYSEFVVHSVDDFDGRLRNNTELNINVDGKHIRLDTRVDMIKFNGRWQLHSIRFD — higher, 1.44
- SEIDHIVKELIRRESEYLKTGDEDAFHDLFDPSTRIEINGQEFHGREWHKHLLKELRFHSIELHDWRIVGDKVEMDTRMLTEVGDKRDYRRTTMHATKFDGKWYLTRVIIE — higher, 1.24
- DEREKRWRKLHQDILEAIWTGDEETFLRLADPDMRFYLIVNGRTVDLHGMELASVVLHERRKRFKNATWHLKSERVQGNYSELNEELIVGDKTYDIRINLVHIDGKLHSVVIEDI — lower, 1.01
- DEERHYVEHIIKLLSRHIYTGDFEAFEELLDPNALIIIGDKHLVGREDWRRLVHEIRIRNEHVEIEDVNVYDGRAESKVTFHGRREYDGRTTETNLDVNYFLLKINGRWVFESLEIR — higher, 1.67
